Laboratory results from patent publication US20260242419A1, “A CYCLIC PEPTIDE FOR TRAPPING INTERLEUKIN-1 BETA” (Merck Sharp & Dohme LLC, priority 2023, published 2026).
Starred links: 1 amine or outer side, 2 acyl side, 3 side chain; linkers in the order of their positions; H or OH if unused. Non-standard residues stand in square brackets, D forms with d. Primed or numbered codes have the meaning given here. dProc4CH21Naph4F = (2R,4R)-4-[(4-fluoro-1-naphthyl)methyl]pyrrolidine-2-carboxylic acid, O=C([C@H]1C[C@@H](Cc2ccc(F)c3ccccc23)CN1[*:1])[*:2]; dProc3Bn4Cl = (2R,3S)-3-[(4-chlorophenyl)methyl]pyrrolidine-2-carboxylic acid, O=C([C@H]1[C@@H](Cc2ccc(Cl)cc2)CCN1[*:1])[*:2]; dProc4Bn4Cl = (2R,4R)-4-[(4-chlorophenyl)methyl]pyrrolidine-2-carboxylic acid, O=C([C@H]1C[C@@H](Cc2ccc(Cl)cc2)CN1[*:1])[*:2]; TyrEtNAc = (2S)-3-[4-(2-acetamidoethoxy)phenyl]-2-amino-propanoic acid, CC(=O)NCCOc1ccc(C[C@H](N[*:1])C(=O)[*:2])cc1; dProc3CH24Pal = (2R,3S)-3-(4-pyridylmethyl)pyrrolidine-2-carboxylic acid, O=C([C@H]1[C@@H](Cc2ccncc2)CCN1[*:1])[*:2]; DabMe3 = [(3S)-3-amino-4-oxo-butyl]-trimethyl-ammonium, C[N+](C)(C)CC[C@H](N[*:1])C(=O)[*:2]; 4PyrimAla = (2S)-2-amino-3-pyrimidin-4-yl-propanoic acid, O=C([C@H](Cc1ccncn1)N[*:1])[*:2]; Phe4pcCCA = (1R,4s)-4-(4-((S)-2-amino-2-carboxyethyl)phenyl)cyclohexane-1-carboxylic acid; Ala3Isoxa5Me = 3-(5-methylisoxazol-3-yl)alanine, Cc1cc(C[C@H](N[*:1])C(=O)[*:2])no1; 4PyrimAla″ = 3-(pyrimidin-4-yl)alanine, O=C([C@H](Cc1ccncn1)N[*:1])[*:2]; Ala2Oxa = 3-(oxazol-2-yl)alanine, O=C([C@H](Cc1ncco1)N[*:1])[*:2]; dPro(4R-(4-pyridylmethyl)) = O=C(O)[C@H]1C[C@@H](Cc2ccncc2)CN1; Ala(piperidin-4-yl) = O=C([C@H](CC1CCN([*:3])CC1)N[*:1])[*:2]; Trp(βS-Me,4-F) = C[C@@H](c1c[nH]c2cccc(F)c12)[C@H](N)C(=O)O; Bip(4'-COOH) = N[C@@H](Cc1ccc(-c2ccc(C(=O)O)cc2)cc1)C(=O)O; Ala(1-bicyclo(1.1.1)pentyl) = N[C@@H](CC12CC(C1)C2)C(=O)O; dPro(4R-Bzl(4-F)) = O=C(O)[C@H]1C[C@@H](Cc2ccc(F)cc2)CN1; dPro(3S-(4-F-Bn)) = O=C(O)[C@@H]1NCC[C@@H]1Cc1ccc(F)cc1; Ala(morpholin-4-yl) = N[C@@H](CN1CCOCC1)C(=O)O; Ala(pyrimidin-5-yl) = N[C@@H](Cc1cncnc1)C(=O)O; Phe(4-COOH) = N[C@@H](Cc1ccc(C(=O)O)cc1)C(=O)O; Phe(4-tBu) = CC(C)(C)c1ccc(C[C@H](N)C(=O)O)cc1; Ala(4-Pyridazinyl) = N[C@@H](Cc1ccnnc1)C(=O)O; Ala(2-pyrazinyl) = N[C@@H](Cc1cnccn1)C(=O)O; Bip = N[C@@H](Cc1ccc(-c2ccccc2)cc1)C(=O)O; Phe(3-Cl) = N[C@@H](Cc1cccc(Cl)c1)C(=O)O; Pro(cis-4-F) = O=C(O)[C@@H]1C[C@H](F)CN1; Ala(4-THP) = N[C@@H](CC1CCOCC1)C(=O)O; cisHyp = O=C(O)[C@@H]1C[C@H](O)CN1; d(αMeD) = C[C@@](N)(CC(=O)O)C(=O)O; h4Pal = N[C@@H](CCc1ccncc1)C(=O)O; 3Pal = N[C@@H](Cc1cccnc1)C(=O)O; 4Pal = N[C@@H](Cc1ccncc1)C(=O)O; aThr = C[C@H](O)[C@H](N)C(=O)O; Dab = NCC[C@H](N)C(=O)O; Aib = CC(C)(N)C(=O)O

B1: SEQ ID NO 319 (peptide)
peptide: cyclo([Bip(4'-COOH)][4Pal][Phe(4-COOH)]G[Pro(cis-4-F)][Trp(βS-Me,4-F)][Aib]SW[d(αMeD)][Ala(morpholin-4-yl)]Q[Dab]G[dPro(4R-Bzl(4-F))])
modifications: ring closure inferred
B2: SEQ ID NO 311 (peptide)
peptide: cyclo([Phe(4-tBu)][4Pal][Phe(4-COOH)]G[Pro(cis-4-F)][Trp(βS-Me,4-F)][Aib]EW[Aib][Ala(pyrimidin-5-yl)]Q[Dab]G[dPro(4R-(4-pyridylmethyl))])
modifications: ring closure inferred; not fully specified (N-terminus); printed as cyclic, Phe4tButyl-4Pal-Phe4COOH-G-Proc4F-SbMeW4F-Aib-E-W-Aib-PyrimAla-Q-Dab-G-dProc4CH24Pal
B3: SEQ ID NO 322 (peptide)
peptide: cyclo([Bip(4'-COOH)][4Pal][Phe(4-COOH)]G[Pro(cis-4-F)][Trp(βS-Me,4-F)][Aib]SW[d(αMeD)][Ala(4-Pyridazinyl)]Q[Dab]G[dPro(4R-Bzl(4-F))])
modifications: ring closure inferred
B4: SEQ ID NO 323 (peptide)
peptide: cyclo([Bip(4'-COOH)][4Pal][Phe(4-COOH)]G[Pro(cis-4-F)][Trp(βS-Me,4-F)][Aib]SW[d(αMeD)][3Pal]Q[Dab]G[dPro(4R-Bzl(4-F))])
modifications: ring closure inferred
B5: SEQ ID NO 310 (peptide)
peptide: cyclo([TyrEtNAc][4Pal][Phe(4-COOH)]G[Pro(cis-4-F)][Trp(βS-Me,4-F)][Aib]EW[Aib]YQ[Dab]G[dPro(4R-(4-pyridylmethyl))])
modifications: ring closure inferred; not fully specified (N-terminus)
B6: SEQ ID NO 313 (peptide)
peptide: cyclo([Bip(4'-COOH)][4Pal][Phe(4-COOH)]G[Pro(cis-4-F)][Trp(βS-Me,4-F)][Aib]SW[d(αMeD)][Ala(4-THP)]Q[Dab]G[dPro(4R-Bzl(4-F))])
modifications: ring closure inferred; not fully specified (N-terminus); printed as cyclic, Bip4CO2H-4Pal-Phe4COOH-G-Proc4F-SbMeW4F-Aib-S-W-daMeD-AlaTHP4-Q-Dab-G-dProc4Bn4F
B7: SEQ ID NO 333 (peptide)
peptide: cyclo([Bip][4Pal][Phe(4-COOH)]G[Pro(cis-4-F)][Trp(βS-Me,4-F)][Aib]SW[d(αMeD)][Ala(pyrimidin-5-yl)]Q[Dab]G[dPro(4R-(4-pyridylmethyl))])
modifications: ring closure inferred
B8: SEQ ID NO 332 (peptide)
peptide: cyclo([Bip(4'-COOH)][4Pal][Phe(4-COOH)]G[Pro(cis-4-F)][Trp(βS-Me,4-F)][Aib]SW[d(αMeD)][4PyrimAla]Q[Dab]G[dPro(4R-Bzl(4-F))])
modifications: ring closure inferred
B9: SEQ ID NO 314 (peptide)
peptide: cyclo([Bip(4'-COOH)][4Pal][Phe(4-COOH)]G[Pro(cis-4-F)][Trp(βS-Me,4-F)][Aib]SW[Aib][DabMe3]Q[Dab]G[dPro(4R-Bzl(4-F))])
modifications: ring closure inferred; not fully specified (N-terminus); printed as cyclic, Bip4CO2H-4Pal-Phe4COOH-G-Proc4F-sbMeW4F-Aib-S-W-Aib-DabMe3-Q-Dab-G-dProc4Bn4F
B10: SEQ ID NO 324 (peptide)
peptide: cyclo([Bip(4'-COOH)][4Pal][Phe(4-COOH)]G[Pro(cis-4-F)][Trp(βS-Me,4-F)][Aib]SW[d(αMeD)][4Pal]Q[Dab]G[dPro(4R-Bzl(4-F))])
modifications: ring closure inferred
B11: SEQ ID NO 325 (peptide)
peptide: cyclo([Bip(4'-COOH)][4Pal][Phe(4-COOH)]G[cisHyp][Trp(βS-Me,4-F)][Aib]SW[Aib][Ala(pyrimidin-5-yl)]Q[Dab]G[dProc3CH24Pal])
modifications: ring closure inferred
B12: SEQ ID NO 309 (peptide)
peptide: cyclo([TyrEtNAc][4Pal][Phe(4-COOH)]G[Pro(cis-4-F)][Trp(βS-Me,4-F)][Aib]EW[Aib][Phe(3-Cl)]Q[Dab]G[dPro(4R-(4-pyridylmethyl))])
modifications: ring closure inferred; not fully specified (N-terminus)
B13: SEQ ID NO 329 (peptide)
peptide: cyclo([Bip(4'-COOH)][4Pal][Phe(4-COOH)]G[Pro(cis-4-F)][Trp(βS-Me,4-F)][Aib]SW[d(αMeD)][Ala(pyrimidin-5-yl)]Q[Dab]G[dProc4Bn4Cl])
modifications: ring closure inferred
B14: SEQ ID NO 334 (peptide)
peptide: cyclo([Phe4pcCCA][Ala(1-bicyclo(1.1.1)pentyl)][Phe(4-COOH)]G[Pro(cis-4-F)][Trp(βS-Me,4-F)][Aib]SW[d(αMeD)][aThr]Q[Dab]G[dPro(4R-(4-pyridylmethyl))])
modifications: ring closure inferred
B15: SEQ ID NO 321 (peptide)
peptide: cyclo([Bip(4'-COOH)][4Pal][Phe(4-COOH)]G[Pro(cis-4-F)][Trp(βS-Me,4-F)][Aib]SW[d(αMeD)][Ala(2-pyrazinyl)]Q[Dab]G[dPro(4R-Bzl(4-F))])
modifications: ring closure inferred
B16: SEQ ID NO 315 (peptide)
peptide: cyclo([TyrEtNAc][4Pal][Phe(4-COOH)]G[Pro(cis-4-F)][Trp(βS-Me,4-F)][Aib]EW[Aib][Ala3Isoxa5Me]Q[Dab]G[dPro(4R-(4-pyridylmethyl))])
modifications: ring closure inferred; not fully specified (N-terminus)
B17: SEQ ID NO 317 (peptide)
peptide: cyclo([TyrEtNAc][4Pal][Phe(4-COOH)]G[Pro(cis-4-F)][Trp(βS-Me,4-F)][Aib]EW[Aib]HQ[Dab]G[dPro(4R-(4-pyridylmethyl))])
modifications: ring closure inferred
B18: SEQ ID NO 328 (peptide)
peptide: cyclo([Bip(4'-COOH)][4Pal][Phe(4-COOH)]G[Pro(cis-4-F)][Trp(βS-Me,4-F)][Aib]SW[d(αMeD)][Ala(pyrimidin-5-yl)]Q[Dab]G[dProc3CH24Pal])
modifications: ring closure inferred
B19: SEQ ID NO 320 (peptide)
peptide: cyclo([Bip(4'-COOH)][4Pal][Phe(4-COOH)]G[Pro(cis-4-F)][Trp(βS-Me,4-F)][Aib]SW[d(αMeD)][Ala(piperidin-4-yl)]Q[Dab]G[dPro(4R-Bzl(4-F))])
modifications: ring closure inferred
B20: SEQ ID NO 316 (peptide)
peptide: cyclo([TyrEtNAc][4Pal][Phe(4-COOH)]G[Pro(cis-4-F)][Trp(βS-Me,4-F)][Aib]EW[Aib][Ala2Oxa]Q[Dab]G[dPro(4R-(4-pyridylmethyl))])
modifications: ring closure inferred; not fully specified (N-terminus)
B21: SEQ ID NO 318 (peptide)
peptide: cyclo([TyrEtNAc][4Pal][Phe(4-COOH)]G[Pro(cis-4-F)][Trp(βS-Me,4-F)][Aib]EW[Aib][h4Pal]Q[Dab]G[dPro(4R-(4-pyridylmethyl))])
modifications: ring closure inferred
B22: SEQ ID NO 326 (peptide)
peptide: cyclo([Bip(4'-COOH)][4Pal][Phe(4-COOH)]G[Pro(cis-4-F)][Trp(βS-Me,4-F)][Aib]SW[Aib][Ala(pyrimidin-5-yl)]Q[Dab]G[dProc3CH24Pal])
modifications: ring closure inferred
B23: SEQ ID NO 327 (peptide)
peptide: cyclo([Bip(4'-COOH)][4Pal][Phe(4-COOH)]G[Pro(cis-4-F)][Trp(βS-Me,4-F)][Aib]SW[d(αMeD)][Ala(pyrimidin-5-yl)]Q[Dab]G[dProc4CH21Naph4F])
modifications: ring closure inferred
B24: SEQ ID NO 335 (peptide)
peptide: cyclo([Phe4pcCCA][Ala(1-bicyclo(1.1.1)pentyl)][Phe(4-COOH)]G[Pro(cis-4-F)][Trp(βS-Me,4-F)][Aib]SW[d(αMeD)][Ala(pyrimidin-5-yl)]Q[Dab]G[dPro(4R-(4-pyridylmethyl))])
modifications: ring closure inferred
B25: SEQ ID NO 331 (peptide)
peptide: cyclo([Bip(4'-COOH)][4Pal][Phe(4-COOH)]G[Pro(cis-4-F)][Trp(βS-Me,4-F)][Aib]SW[d(αMeD)][Ala(pyrimidin-5-yl)]Q[Dab]G[dPro(3S-(4-F-Bn))])
modifications: ring closure inferred
B26: SEQ ID NO 330 (peptide)
peptide: cyclo([Bip(4'-COOH)][4Pal][Phe(4-COOH)]G[Pro(cis-4-F)][Trp(βS-Me,4-F)][Aib]SW[d(αMeD)][Ala(pyrimidin-5-yl)]Q[Dab]G[dProc3Bn4Cl])
modifications: ring closure inferred
B27: SEQ ID NO 312 (peptide)
peptide: cyclo([Bip(4'-COOH)][4Pal][Phe(4-COOH)]G[Pro(cis-4-F)][Trp(βS-Me,4-F)][Aib]EW[Aib][4PyrimAla″]Q[Dab]G[dPro(3S-(4-F-Bn))])
modifications: ring closure inferred; not fully specified (N-terminus); printed as cyclic, Bip4CO2H-4Pal-Phe4COOH-G-Proc4F-SbMeW4F-Aib-E-W-Aib-4PyrimAla-Q-Dab-G-dProc3Bn4F

Target: Recombinant human IL-1β (BioLegend 579404) (human, UniProt P01584 117-269)
Experiment: cell-based or functional assay

MRC5 IC50 [nM] | Binder
0.017 | B1
0.017 | B2
0.013 | B3
0.012 | B4
0.017 | B5
0.015 | B6
0.022 | B7
0.013 | B8
0.02 | B9
0.013 | B10
0.027 | B11
0.018 | B12
0.009 | B13
0.022 | B14
0.015 | B15
0.018 | B16
0.015 | B17
0.008 | B18
0.015 | B19
0.02 | B20
0.025 | B21
0.011 | B22
0.016 | B23
0.022 | B24
0.011 | B25
0.008 | B26
0.017 | B27
